Test: soluble on expression in E. coli; label from the status in PepcDB or PDB records

Row | Sequence | soluble on expression in E. coli
1 | GAGAYAYKTIKEDQKRYNERVMGLGLSPEEKQRRAIASATEGGSVPQIRAPSHVPFLLIGGGTAAFAAARSIRARDPGARVLIVSEDPELPYMRPPLSKELWFSDDPNVTKTLQFRQWNGKERSIYFQPPSFYVSAQDLPNIENGGVAVLTGKKVVHLDVRGNMVKLNDGSQITFEKCLIATGGTPRSLSAIDRAGAEVKSRTTLFRKIGDFRALEKISREVKSITVIGGGFLGSELACALGRKSQASGIEVIQLFPEKGNMGKILPQYLSNWTMEKVKREGVKVMPNAIVQSVGVSGGRLLIKLKDGRKVETDHIVTAVGLEPNVELAKTGGLEIDSDFGGFRVNAELQARSNIWVAGDAACFYDIKLGRRRVEHHDHAVVSGRLAGENMTGAAKPYWHQSMFWSDLGPDVGYEAIGLVDSSLPTVGVFAKATAQDNPKSATEQSGTGIRSESETESEASEITIPPSAPAVPQVPVEGEDYGKGVIFYLRDKVVVGIVLWNVFNRMPIARKIIKDGEQHEDLNEVAKLFNIHED | soluble
2 | MAGDPMSMHPALKYIQGYPQHIVEQVAQLIANDKLIPWFEQRYPERHDIQSEKALFDFTMALKNQYMKKTAPLSKVVYDGKIHLINNALGLHSYVSRVHGNKLKAKNEIRIANVFKQAPEPLLRMLVVHELAHLKEKEHNKAFYQLCCHMEPNYHQLELDARLYMMVLELKAGKALEHHHHHH | not soluble
3 | MEQCNERPKVSVIIPVYNTCNYVQEALESICQQTLEELEIIVIDDGSTDCSRAIVEEIAIKDTRIQVYKQSNQGLSITRNQGLKFSTGEYIYFMDSDDFLEPDALELCYRKCTKEALDFVFFDAETFTIEPNIPESSFDYQRTLDLPEKICSGIDMLKTQLKTYKFKSSVCLNLFHREFICEERLSFYPGILHEDQLFMIQAYLHASKTGFIRRSFFHRRIRTNSIMTKKFTWKNMEGYLTVTNELLRELPIYPKTYHHTIFFFLRQMLDAAVWQAHTLSLPQRIKLFSLCLKYYRPYVTMRTLMVLLLKTSIHPRQ | soluble
4 | MCGRFVLKATPEEIADYLDLIGLEDFPARFNIAPTQPILVVMEGEQQERGSNLPNRRAVLVRWGFMPGWVKDPKDFPLLINARSETAIGKASFRAAMRHRRVLIPATGFYEWRRPPKEEGGKAQPYFIRPKNGGIVAFAGLMETWSSADGSEVDTGAILTTAANAAIGRIHDRMPVVIAPEDFSRWLDCKTQEPREVADLMRPVQGDFFEMIPVSDKVNKVANVGADLIDPVPESAPLAKVRPAKDDGQMSLFLEHHHHHH | not soluble
5 | MAAFMEEALVEARRARDAGEVPVGCVFVHGDKVVARGGNEVNVHRNATRHAEFICIDAILASCRERRLPARQLFSEITVVVTVEPCIMCSAALHTLGVKEIIYGCENDRFGGKTVVDVAAVVGHRIEITGGVRADEAMALLKDFYKGDNPAAPPQAKKKKLEHHHHHH | soluble
6 | MSSNQYIQSLELTNFTVLPNDTFEFSENLNVIVAENGCGKTHLLKILYSLLEVTSNTKNRLLKTELQKSFADKLLNVFRPDSLGRLSKRLQGRGRTEIVLKLQNGTTHSSLNFSSNSSSQVNVQSIGLKENEYTPTPIFLPSRELITLCPWFTSLYQNQSIPFEETWFDTCMQLNHPLAKGPRETKIRELLEPIENAMGGKVSEEQGRFYLSLTNTGGKIEAPLVAEGLRKFVMIARLIATGALLDKGYLFWDEPEANLNPKLIKVAARIIWSLSQQGIQVFIATHSLFLLRELELLKLENNTDLPVRFFSLIASDDGTKVEQGNSINDLNTLILLDENIMQADRYLNI | not soluble
7 | GMAEPKFTSFTTADFINDVDMELFIDAVEKTAPVWVKEMKSRGLLKFSMNRVWNKGEVFRVVMTYEYKDRASFEANIAYLEDTFGKNPVFLQLVTTAKFTTSRCLVVMEV | soluble
8 | MSQGHRDAGAAACRTIIVTNHCPPIMRKRDIWRVDQFHLLRKVGSGYASTVYLGTCRTSGNQVAVKLYHKQKLSELNHFQVAREITIHSSLDHKNIIQLWAAFEDQYGIYLVFEYASKGDVFTEVERRGGQLDEAETVRAVVYPFLSALDYLHSRCIIHRDIKPENLLFTATGVLKVADFGLSINFSQERPVTRVGTLDYMAPEVVVCPDKHRPQDHKELKHLHYTPLVDAWAVGVLAYELIVGRPPFDKGQKKATIAEILNSEPFIPPWLSEGATHFIRWSLTKEVGKRPSVQQLAEHPWIVSHMKQSVLAPARRQLVKTDSFVEPRQLGFRGSNAPGAGEPSGPSKEPPRPLQVSSVAQGGRFLGHSSSMSAMDGMRYRDIHLDSVTGGMASAATEALKSVKRVSDGDGTTGGRPSAAGGRVSRAGTARNSGTGQAPLSRMNSMSAQAVVAAAAAAMASGSFGGAAHGSEDSPKGGRALTREELYASLTAPLGGRGSPVLARSFTAGRASPAPQQMAPLPTNAGRKSGGGGLGSGRSSLSGQATGAPPSRGAAELAHDLSRLRVDSAASGGGGAAGPSTSASGAVPYSPGKGSSGIRPSPPQAPSPTARGLRTGSPLIPSRLSQSFTSPVSPLAAGSNASAGTPHLSRLGKTSNSGIVPAVATANTPGSARPPAGMDAHSSAASSAAAAGAQSSPHQPAAAAAGSSLTVSTTPASPGGSSGYGQTRASPRELPGERDPELEDSEVEDEPETERSPSKSKSLFKKIFS | not soluble
9 | MNANIMLNEDITPIGSDYDTVRGVIELLTLDYREQPSLEAIAARLGQSPTQLQKTFTRWAGLSPKAFLQAVTLDHAKRLLREEDLPLLETSIEVGMSGPGRLHDLFVTHEAMSPGEWKAKGGGLTIRYGFHASPFGLALVMITDRGLAGCAFADPGDERACFEDMAGRWPNADYVEDREATAPYAARIFEPAMWTADKPLRVVLLGTDFQVRVWKSLLKIPMGRAVTYSNIACDIGQPTASRAVGAAVGANPVSFVVPCHRAVGKSGALTGYHWGLTRKRAMLGWETGKALEHHHHHH | not soluble
10 | RPPKWTGMDVWAAAICFNTVEAAKKNLPKPESWADLTKPVYKGQIVMPHPASSGTGYLDVSAWLQTLGEKKGWDYMDKLHANMAQYVHSGSKPCKMAAAGEYPIGISFEYRGAQLKEKGAPIDLIYPKEGLGWDLEATAIIKGTKNLEAARKLADFSVSLPAMKLYEQNYAVLAMPGV | not soluble
11 | MSSVPQSKQELELAIHSVFPKLMADYRSIPAQMSRVCSIDGNIQGTQISVCDTVAYLIGWGKLVLKWYELTSQTLPVDFPDTGYKWNQLELLADRFHQEYHQWQYSDLLNEYELTMAKLLTLIASLSVQQLYGIAWYDKWTLGRMIQFNTYSPMKNMRTKVRRFKKDNALKLEHHHHHH | not soluble
12 | MGSDKIHHHHHHLSREARYLEEARGFYQSGKFSSAGIYARKVIRREPSNGEAQALLGHLAFRSGEHQEAMSCYLKAQAAGFQDQELRLNLVTLHERREAFFDAVNLLRELVEETPQDLSLQLRLGINASRTGDMTTAESALLAALAGDEQAAQASLNLGHVYKAKGDTDKAAAFYHDYIRLAPSQQATAYWSLADLKNYRFTEQDEAALKANIAAEEFSQASQSLFHFALNRVYEQRKQGEQAFDAVRMANQLMRPLRPFKREAFTRLVDSLKSAEVKPRGEETSGPWTPIFIVGMPRSGTTLCEQILASHSQIAATDELPFMERLALSLEMKGGYGAMLPRLSEEQIAQMRQQYIEQVNQYLKAQGEASPSLVPSLVIDKNPNNFIHIGLIKTLFPEAKIINVIRDARDNAMGVYKQHFSHGHDYSYHLDDICHYWQLYLELMAHWQQAYGDSLYHLCFEQLVKAPDQQIPAMVDYVGLALEPACLKFYESKRSVLTPSASQVRRPMNVKAIGQSEAYAAFIPNAYRTLTVIADRAHKSFLS | not soluble
13 | MDRADLRIAVLMGTKDGAPFIDEQLQSLLAQSHPLIDLWISDDGSVDGTVPIIEAWKSRWTKGRVTLVQGPREGFAANFRSMILDRRIDADFYAFSDQDDVWEPDRLESAVQWMQAFGAEPPLMFCSRTATMTETGSLAGHSPLFRRPPSFRNALVQSIAGGNTILLNRAARDLLARASARTGFVSHDWWAYLVVTGAGGVVHYDPRPLVRYRQHAANLVGANVSWAARVSRLGRLFKGEFADWTDLNLAGLAVNRDLLTPDAATCLDLFASGRQGSLFQRLRTLLVSGVYRQTLAGTLGLYLAFVLGRILEHHHHHH | not soluble
14 | STYPPTPPNVTRLSDESVMLRWMVPRNDGLPIVIFKVQYRMVGKRKNWQTTNDNIPYGKPKWNSELGKSFTASVTDLKPQHTYRFRILAVYSNNDNKESNTSAKFYLQPGAALDPMPVPELLEIEEYSETAVVLHWSLASDADEHLITGYYAYYRPSSSAGEYFKATIEGAHARSFKIAPLETATMYEFKLQSFSAASASEFSALKQGRTQRPK | soluble
15 | MTTATAGLAVELKQSTAQAHEKAEHSTFMSDLLKGRLGVAEFTRLQEQAWLFYTALEQAVDAVRASGFAESLLDPALNRAEVLARDLDKLNGSSEWRSRITASPAVIDYVNRLEEIRDNVDGPALVAHHYVRYLGNLSGGQVIARMMQRHYGVDPEALGFYHFEGIAKLKVYKDEYREKLNNLELSDEQREHLLKEATDAFVFNHQVFADLGKGL | soluble
16 | MKSIIIAAPHSGSGKTTITLGIMECLKRRGLTVAPFKVGPDFIDPGYHRLICGRPSVNLDGWMCGGDFVQETFFHHAAGADIAVVEGVMGLFDGIGGVSDEGSTAEVAKLLGGPVVLVADAKGQARSVAALVKGFADFDPEVRVVGVIFNNVASDAHGRILREAVESHLPDVRVLGCIPRDESLSIPSRHLGLFTVDENPLPAEFLDHLVEVVREHVDLGMLWSVATLQGASDVKRRQDAPRREPVRIGVARDAAFCFVYEDNLRLLREAGAELVEFSPLADRELPEGVAGLYLPGGYPEVFADVLADNTPMKDAVRGAVVGEMPVYAECGGFIYLSRGVTGMRDDLESFNEFVGIFPVATLMLPRRKALGYREVELAADSIIGPVGAMARGHEFHYSEMEAMPPEVERLYRVRRAGIDLGTEGYRHRNCLASYVHIHFGSCPDMAEAFVNHCRNYAQRSHSLEHHHHHH | soluble
17 | MKRKKPTIHDVAAKAGVGLGTVSRVLNDHPAVRHETRARVLRAMEELGYAPNPHARRIAGGRSYTVSVLLPFVATEFYRRLVEGIEGVLLEQRYDLALFPILSLARLKRYLENTTLAYLTDGLILASYDLTERFEEGRLPTERPVVLVDAQNPRYDSVYLDNRLGGRLAGAYLARFPGPIFAIAVEEEPDRAFRRTVFAERMAGFQEALKEAGRPFSPDRLYITRHSQEGGRLALRHFLEKASPPLNVFAGADQV | soluble
18 | MSLEEINKIEVIEKSIEENTEKYEIKVKYPSIQGGEKEVTDKINKTIEDYTLNWINDIKLLGEEYSKEYEKAGKEMPKMEAYSLFEAFNTDEVISLPVSYYQYTGGAHGLTTKVSYNYNLKTGKELKLKDLFKEGFDYKSIIDKKVRGDIEKEKELYFDNGALFKGVNENQAYYLNRDGIIVYFQQYEIAPYSSGIREFKIPYGELKEGLIYKLGNEGHHHHHH | soluble
19 | MSTHIQRSALLPYPARALFDLVNDVKRYPEFLPWCSASQVLEESESLMRAELTVAKGSLSQRFTTRNVLVPGASIEMNLENGPFTELHGVWQFKALGEKACKITLDLTFDYAGPLVKATLGPLFTQAANTMVDAFCQRAKQLYG | not soluble
